According to PMC3795524:

Columns and labels:
[1] = target: KNH1144 SOSIP.IEGR G-MPER gp140 (uncleaved) (HIV-1 KNH1144 (subtype A)); assay: native gel or EMSA
[2] = target: KNH1144 SOSIP.IEGR G-MPER gp140 (uncleaved) (HIV-1 KNH1144 (subtype A)); assay: AUC
[3] = target: KNH1144 SOSIP.R6 G-MPER gp140 (cleaved) (HIV-1 KNH1144 (subtype A)); assay: native gel or EMSA
[4] = target: KNH1144 SOSIP.R6 G-MPER gp140 (cleaved) (HIV-1 KNH1144 (subtype A)); assay: AUC

| Substance | stoichiometry N [1] | stoichiometry N [2] | stoichiometry N [3] | stoichiometry N [4] |
| --- | --- | --- | --- | --- |
| KNH1144 SOSIP.IEGR G-MPER gp140 (uncleaved) (domain or fragment) | 3 | 3 | – | – |
| KNH1144 SOSIP.R6 G-MPER gp140 (cleaved) (complex) | – | – | 3 | 3 |
